# Article PMC12217647, “Mid‐Regional Proadrenomedullin Can Be Reliably Measured in Cerebrospinal Fluid to Improve Diagnosis of Central Nervous System Diseases” (Journal of Clinical Laboratory Analysis, 2025)
# “And” between values parts separate entries of the source, which are not always exact repeats. Identical values can stand only once.
# Tests used:
# [1] = MR‐proADM stability in CSF samples stored at −80°C; type: in vitro ADME, human
# Protocol: (§1) MR‐proADM concentrations were measured in CSF using the B.R.A.H.M.S. MR‐proADM fluoroimmunoassay on the Brahms Kryptor Gold Analyzer (THERMO […], Hennigsdorf, Germany), which is a fully automated homogeneous phase random access platform. The system uses the TRACE (Time‐Resolved Amplified Cryptate Emission) technology to measure the fluorescence signal emitted by an immunocomplex. MR‐proADM results are expressed in nmol/L. The declared linearity in plasma EDTA samples ranges from 0.21 to 100 nmol/L, with a maximum bias of ±20%. The manufacturer's reference range for EDTA plasma samples is < 0.56 nmol/L, corresponding to the 97.5th percentile of a control series, which disclosed a median value of 0.38 nmol/L. The Limit of Detection (LoD) is 0.09 nmol/L, while the Limit of Quantitation (LoQ) is 0.21 nmol/L (IFU_B.R.A.H.M.S. MR‐proADM KRYPTOR assay; 07 April 2022; Thermo Scientific, Hennigsdorf, Germany). This MR‐proADM immunoassay is currently certified only for plasma‐EDTA blood samples, and the manufacturer recommends immediate centrifugation to preserve molecular stability at room temperature (18°C–25°C) or at 2°C–8°C up to 24 h. Afterwards, samples should be aliquoted and frozen at −20°C or below. Plasma samples can be kept frozen up to 14 days, and the analyte is considered stable for up to 4 freeze/thaw cycles.
# (§2) According to the recommendations in plasma, MR‐proADM was measured in clear CSF samples after centrifugation to avoid interference by cells or other microparticles. Bloody CSF samples were discarded. The first step was aimed at assessing MR‐proADM stability in CSF as a function of different storage temperatures and storage time after collection. To test room temperature stability in CSF, we measured MR‐proADM in 10 fresh samples (T0) and after 12, 24, and 48 h (T1, T2, T3) on the bench (25°C). To test recovery after storage at −20°C, we measured MR‐proADM concentration in 29 CSF samples stored frozen for less than 15, 16 to 60, and more than 60 days. Finally, to test recovery after storage at −80°C, we measured MR‐proADM concentration in 25 CSF samples before and after a variable period of storage at −80°C. The second step of our study was to evaluate the analytical performance of the B.R.A.H.M.S. MR‐proADM method using CSF samples. For this purpose, we evaluated the repeatability and the within‐laboratory precision of this assay. Due to the small amount of CSF volume obtained from each residual sample, 58 CSF samples were pooled in 3 subgroups according to their MR‐proADM values, thus creating 3 pools of about 5 mL volume each, characterized by low, medium, and high MR‐proADM concentration. These pools were finally stored at −20°C.
# (§3) To assess the difference between measures of MR‐proADM in fresh samples and after storage at room temperature, at −20°C, and at −80°C, we used the Wilcoxon matched‐paired T test, considering significant p < 0.05.
# [2] = body fluids; statement of the introduction; cited from earlier work
# [3] = plasma‐EDTA, ref IFU_B.R.A.H.M.S. MR‐proADM KRYPTOR assay, 07 April 2022, cited from earlier work
# Protocol: MR‐proADM concentrations were measured in CSF using the B.R.A.H.M.S. MR‐proADM fluoroimmunoassay on the Brahms Kryptor Gold Analyzer (THERMO […], Hennigsdorf, Germany), which is a fully automated homogeneous phase random access platform. The system uses the TRACE (Time‐Resolved Amplified Cryptate Emission) technology to measure the fluorescence signal emitted by an immunocomplex. MR‐proADM results are expressed in nmol/L. The declared linearity in plasma EDTA samples ranges from 0.21 to 100 nmol/L, with a maximum bias of ±20%. The manufacturer's reference range for EDTA plasma samples i ...
# [4] = MR‐proADM stability in CSF at room temperature (B.R.A.H.M.S. MR‐proADM KRYPTOR fluoroimmunoassay); type: in vitro ADME, human
# Protocol: as §1, §2, §3
# [5] = MR‐proADM stability in CSF samples stored at −20°C; type: in vitro ADME, human; details: for Mean difference pre and post freezing: mean of samples
# Protocol: as §1
# as §2, with “−20°C. […]” for “−20°C.”
substance,measurement,setting,value
"Mid‐regional proADM (ELRMSSSYPTGLADVKAGPAQTLIRPQDMKGASRSPEDSSPDAARIRV; MR-proADM; UniProt P35318 45-92, looked up, fragment) [MR‐proADM]",Stability in CSF samples stored at −80°C (in words),"[1]; 25 CSF samples, variable storage time at −80°C",quite stable
same,"Decrement, half of the samples","[1]; CSF stored at −80°C, 25 samples",≤ 10%
same,"Loss of recovery / decrement versus fresh, majority of cases","[1]; CSF stored at −80°C, p < 0.001 vs fresh",less than 10%
same,Storage time at −80°C with very good stability,"[1]; CSF, −80°C",at least 24 months
same,"MR‐proADM concentration, Fresh","[1]; baseline before storage at −80°C, 25 individual CSF samples S1–S25, one line per sample",0.55 nmol/L and 0.56 nmol/L and 0.77 nmol/L and 0.51 nmol/L and 0.53 nmol/L and 0.59 nmol/L and 0.66 nmol/L and 0.70 nmol/L and 0.89 nmol/L and 1.00 nmol/L and 0.43 nmol/L and 0.57 nmol/L and 0.64 nmol/L and 0.69 nmol/L and 0.75 nmol/L and 0.62 nmol/L and 0.71 nmol/L and 0.73 nmol/L and 0.79 nmol/L and 0.54 nmol/L
same,half‐life compared with ADM (in words),[2],longer half‐life
same,Time of molecular stability after centrifugation,[3]; room temperature (18°C–25°C) or 2°C–8°C,up to 24 h
same,Time plasma samples can be kept frozen,[3]; −20°C or below,up to 14 days
same,Freeze/thaw cycles over which the analyte is considered stable,[3],up to 4 freeze/thaw cycles
same,"MR‐proADM concentration, After 12 h","[4]; CSF on the bench at room temperature (25°C) for 12 h, individual samples S1–S10, one line per sample, p = 0.2918 vs fresh",0.45 nmol/L and 2.67 nmol/L and 0.80 nmol/L and 1.11 nmol/L and 1.23 nmol/L and 0.91 nmol/L and 1.07 nmol/L and 0.96 nmol/L and 1.63 nmol/L
same,"MR‐proADM concentration, After 24 h","[4]; CSF on the bench at room temperature (25°C) for 24 h, individual samples S1–S10, one line per sample, p = 0.6760 vs fresh",0.51 nmol/L and 2.61 nmol/L and 0.80 nmol/L and 1.15 nmol/L and 1.25 nmol/L and 0.93 nmol/L and 1.09 nmol/L and 0.92 nmol/L and 1.67 nmol/L
same,"MR‐proADM concentration, After 48 h","[4]; CSF on the bench at room temperature (25°C) for 48 h, individual samples S1–S10, one line per sample, p = 0.1515 vs fresh",0.45 nmol/L and 2.74 nmol/L and 0.78 nmol/L and 1.14 nmol/L and 1.27 nmol/L and 0.93 nmol/L and 1.12 nmol/L and 0.97 nmol/L and 0.99 nmol/L and 1.64 nmol/L
same,Stability in CSF samples stored at room temperature (in words),"[4]; CSF, 25°C, 12, 24 and 48 h, n = 10 samples, no significant difference from fresh",highly stable
same,Storage time at room temperature over which MR‐proADM remains highly stable in CSF,"[4]; CSF, room temperature (25°C)",≤ 48 h
same,"MR‐proADM concentration, Fresh","[4]; T0 baseline, clear centrifuged CSF, 10 individual samples S1–S10, one line per sample, TRACE fluoroimmunoassay, Kryptor",0.45 nmol/L and 2.67 nmol/L and 0.79 nmol/L and 1.15 nmol/L and 1.23 nmol/L and 0.92 nmol/L and 1.07 nmol/L and 0.94 nmol/L and 0.98 nmol/L and 1.65 nmol/L
same,Mean difference pre and post freezing,[5]; CSF stored at −20°C for less than 15 days,14.2%
same,Mean difference pre and post freezing,[5]; CSF stored at −20°C for more than 60 days,18.6%
same,Mean difference pre and post freezing,[5]; CSF stored at −20°C from 16 to 60 days,15.9%
same,Percentage reduction in some samples,"[5]; CSF stored at −20°C, worst cases",up to 50%
